In patent US20170082609A1:

Experiments:
[1] = molecular target: CDHR3 Cys529→Tyr variant (human) (UniProt Q6ZTQ4); assay: cell-based or functional assay
[2] = molecular target: CDHR3 Cys529→Tyr variant (human) (UniProt Q6ZTQ4); assay: virus bound to HeLa-E8 monolayers, viral RNA by real-time PCR
[3] = molecular target: CDHR3 Cys529→Tyr variant (human) (UniProt Q6ZTQ4); assay: virus bound to HeLa-E8 cells 2 h p.i., viral RNA by real-time PCR

UniProt Q6ZTQ4, sequence (Q6ZTQ4 other isoform, or with tags, fused parts or gaps mutant): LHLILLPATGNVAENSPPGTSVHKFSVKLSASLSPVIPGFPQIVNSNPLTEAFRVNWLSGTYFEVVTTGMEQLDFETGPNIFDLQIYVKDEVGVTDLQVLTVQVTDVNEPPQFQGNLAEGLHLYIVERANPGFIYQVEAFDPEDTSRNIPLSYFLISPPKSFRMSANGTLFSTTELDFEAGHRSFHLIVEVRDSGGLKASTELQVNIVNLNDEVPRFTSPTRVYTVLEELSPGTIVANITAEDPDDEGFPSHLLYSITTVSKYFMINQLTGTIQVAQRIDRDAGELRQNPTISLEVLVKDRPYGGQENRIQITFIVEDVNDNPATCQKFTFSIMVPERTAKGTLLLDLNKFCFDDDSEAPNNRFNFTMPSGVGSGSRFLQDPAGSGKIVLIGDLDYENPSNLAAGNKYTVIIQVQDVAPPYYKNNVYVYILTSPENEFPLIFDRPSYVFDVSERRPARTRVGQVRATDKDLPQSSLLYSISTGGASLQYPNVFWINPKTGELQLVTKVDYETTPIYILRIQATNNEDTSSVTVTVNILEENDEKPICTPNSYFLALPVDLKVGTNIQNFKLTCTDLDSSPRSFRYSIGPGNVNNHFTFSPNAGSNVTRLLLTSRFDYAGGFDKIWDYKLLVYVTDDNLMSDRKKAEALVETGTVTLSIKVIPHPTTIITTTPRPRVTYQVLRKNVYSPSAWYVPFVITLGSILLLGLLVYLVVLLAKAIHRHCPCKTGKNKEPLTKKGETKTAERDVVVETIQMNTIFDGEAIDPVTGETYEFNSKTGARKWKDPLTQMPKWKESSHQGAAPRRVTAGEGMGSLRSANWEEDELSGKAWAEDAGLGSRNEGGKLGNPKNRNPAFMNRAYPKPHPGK

**Q.** HeLa-E8 adapted RV-C15 (RV-C15a) was tested. Which replication in HeLa-E8 compared to control HeLa cells (orders of magnitude) [1] did it give?
**A.** The replication in HeLa-E8 compared to control HeLa cells (orders of magnitude) was 2.

**Q.** What about the fold increase of virus binding against the parental isolate [2] of the same substance?
**A.** The fold increase of virus binding against the parental isolate was greater than 10 fold.

**Q.** And the binding compared to that of RV-C15-wt [3]?
**A.** Its binding compared to that of RV-C15-wt is greater than 1 log.
